According to patent US20240043527A1 (BioNTech SE, priority 2020, published 2024):

How the values were obtained:
CLDN-18.2 = biological target: T1, CLDN-18.2 (Homo sapiens, UniProt P56856); test: Flow cytometric binding assay on CLDN-18.2+ HEK293 transfectants; details: CHO-K1 supernatant on CLDN-18.2+ HEK293 transfectants
T1 construct: expressed in transfected cells; host or cells: HEK293

[1] = tested on: CLDN-18.2+ CHO-K1 transfectants; test: In vitro CDC assay (luciferase-based); type: cell-based; details: human serum, 2 hours, control CLDN-18.2-negative CHO-K1
Description: RiboMab01-containing cell culture supernatant from CHO-K1 cells lipofected with RB_RMAB01 was subjected to (Panel A) ADCC and (Panel B) CDC assays. […] Human PBMCs of three different healthy donors were utilized as effector cells (E:T ratio 30:1). Target or control and effector cells were incubated for 48 hours with the indicated RiboMab01 and IMAB362 reference protein concentrations. Specific cell lysis as determined in a luciferase-based assay is shown. […] Target and control cells were incubated with human serum and RiboMab01 concentrations as indicated for 2 hours. CDC determined in a luciferase-based assay is shown. Error bars are standard errors of the mean (n=3).
Mode of action analysis: Antibody-dependent cellular cytotoxicity (ADCC) and complement-dependent cytotoxicity (CDC) in vitro. […] To simulate in vivo conditions, human PBMCs from three different healthy donors were used as effector cells in ADCC assays in an effector to target (E:T) ratio of 30:1 and human serum (e.g., commercially available human serum) was used as a source of complement in CDC assays.

[2] = tested on: CLDN-18.2+ NUG-C4 transfectants; test: Ex vivo ADCC assay with plasma of dosed mice; type: cell-based, human; details: 1% plasma sampled 24 hours post 5th IV dosing of 1-30 μg RNA composition, 48 hours, E:T 30:1
Description: (§1) Plasma of mice dosed with five repetitive injections of either 1 μg (˜0.04 mg/kg), 3 μg (˜0.10 mg/kg), 10 μg (˜0.40 mg/kg) and 30 μg (˜1.20 mg/kg) RB_RMAB01 or 80 μg (˜3.20 mg/kg) of IMAB362 was sampled 24 hours post 5th injection and directed to luciferase-based ex vivo ADCC assays. Plasma of untreated mice spiked with IMAB362 served as assay reference. […] (Panel A) RiboMab01 mediated ADCC of NUG-C4 cells after 48 hours incubation with 1% of plasma is shown. […] Error bars are standard errors of the mean (n=3).
(§2) Plasma of untreated mice spiked with IMAB362 served as assay reference.

MDA-MB-231 cells = test: Ex vivo ADCC assay with plasma of dosed mice, target-negative control cells; type: cell-based, human; details: mouse plasma
Description: as §1, §2

[3] = tested on: CLDN-18.2+ NUG-C4 transfectants; test: Ex vivo ADCC assay with serum of dosed non-human primates; type: cell-based; details: for ADCC target cell lysis: serum 24 hours and 168 hours post IV dosing of 0.1, 0.4, 1.6 mg/kg
Description: Non-Human Primates (NHP) received three repetitive doses of 0.1, 0.4 or 1.6 mg/kg RB_RMAB01 once weekly. RiboMab01-containing serum of all monkeys sampled 24 hours (black bars) and 168 hours (white bars) post 1st injection was directed to luciferase-based ex vivo ADCC assays. […] Human PBMCs from two different healthy donors (24 h, donor 1, 168 h, donor 2) served as effector cells. (Panel A) RiboMab01-mediated ADCC of NUG-C4 cells after 48 hours incubation is shown. (Panel B) Unspecific lysis on target-negative MDA-MB-231 cells is shown. Error bars are standard error of the mean (n=3). (Panel C) Serum of NHP No. 14 (1.6 mg/kg RB_RMAB01, RiboMab01 serum concentration 232 μg/mL) collected 48 hours after the 3rd dosing was used for a luciferase-based ex vivo ADCC assays. […] Human PBMCs of a healthy donor served as effector cells. […] Incubation time was 48 hours. Error bars are standard errors of the mean (n=3).
ADCC assays were performed as described in Example 2. […] Purified IMAB362 served as assay reference protein.

[4] = Single dose PK study in mice (ELISA); type: in vivo, Balb/cJRj mice; details: single IV dose
Description: Balb/cJRj mice received a single IV injection of 1 μg (0.040 mg/kg), 3 μg (˜0.10 mg/kg), 10 μg (˜0.40 mg/kg) or 30 μg (˜1.20 mg/kg) RB_RMAB01 drug product and […] IMAB362 reference protein. Plasma was sampled 6, 24, 96, 168, 264, 336 and 504 hours post administration. RiboMab01 concentrations in plasma measured via ELISA are shown. Error bars are standard errors of the mean (n=3).

[5] = Single dose PK study in rats (ELISA); type: in vivo, RjHan:Wister rats; details: single IV dose, post administration
Description: RjHan:Wister rats received a single IV injection of 0.04, 0.10, 0.40 or 1.20 mg/kg of RB_RMAB01 and 3.60 mg/kg of IMAB362 reference protein. Plasma was sampled 2, 6, 8, 10, 22, 24, 27, 30, 48, 72, 96, 168, 216, 264 and 336 hours post administration. RiboMab01 concentrations in plasma measured via ELISA are shown. Error bars are standard errors of the mean (n=3).

[6] = Repetitive dose PK study in mice (ELISA); type: in vivo, Balb/cJRj mice; details: five weekly IV doses
Description: Balb/cJRj mice received IV injections of 1 μg (˜0.04 mg/kg), 3 μg (˜0.10 mg/kg), 10 μg (˜0.40 mg/kg) or 30 μg (˜1.20 mg/kg) RB_RMAB01 and 80 μg (˜3.20 mg/kg) IMAB362 reference protein at test days 1, 8, 15, 21 and 29. Plasma was sampled 24 hours pre- and 24 hours post-dosing. RiboMab01 concentrations in plasma measured via ELISA are shown. Dotted lines indicate injections. Error bars are standard errors of the mean (n=3).

[7] = cynomolgus monkey, in vivo
Description: Furthermore, immunotoxicity in vivo was assessed as part of the repeated-dose toxicity study in mice and a pharmacokinetic study in cynomolgus monkey. All studies were designed in accordance with the ICH S8 guideline (Immunotoxicity studies for human pharmaceuticals).

## CLDN-18.2-targeting RiboMab: CLDN-18.2-targeting IgG antibody (IMAB362 delivered as ribonucleic acid) expressed from mRNAs encoding heavy and light chain
CLDN-18.2
  binding to CLDN-18.2 polypeptide: bound preferentially
CLDN-18.2; listed as RiboMab01
  binding to CLDN-18.2 polypeptide: binds target specific to CLDN-18.2
[1]
  CDC, cellular cytotoxicity: target specific and dose-dependent cellular cytotoxicity comparable to the reference protein IMAB362
[1]; listed as RiboMab01
  CDC, cellular cytotoxicity: high target specific cell cytotoxicity
[2]
  ADCC target cell lysis: high and dose-dependent target cell lysis
[2]; listed as RiboMab01
  ADCC target cell lysis: specific tumor cell lysis
MDA-MB-231 cells
  unspecific lysis on target-negative cells: No unspecific lysis
[3]
  ADCC target cell lysis: high and dose-dependent target cell lysis
[3]; listed as RiboMab01
  ADCC target cell lysis: dose-dependent ADCC
[3]; serum of monkey No. 14 (1.6 mg/kg) 48 hours after 3rd dosing or recombinant reference protein, 48 hours incubation
  EC50: 0.066 nM
[3]; serum of monkey No. 14, 48 hours after 3rd injection, 10-point dilution row
  ADCC EC50: 0.01 µg/mL
[4]
  time RiboMab detectable post administration: up to 504 hours
[4]; listed as CLDN-18.2-targeting antibody agent
  time RiboMab detectable post administration: up to 504 hours post dosing.
[5]
  time of peak concentration: 24 h
[6]; 30 μg, 24 hours post-dosing
  peak plasma concentration of RiboMab: ≤ 1000 µg/mL
[6]
  RiboMab levels on weekly administration: Sustained CLDN-18.2-targeting RiboMab
[7]
  systemic side effects: no systemic side effects such as diarrhea were observed
